# Measured values: US20120167239A1
# Target: GAL4:CfEcR-DEF (yeast; Choristoneura fumiferana)
# Test: cell-based or functional assay
substance,measurement,value
VP16:LmUSP-EF,"maximum fold induction of luciferase reporter (two-hybrid switch, stable CHO clone 1A2, non-steroidal ligand)",162 fold
same,"maximum fold induction of luciferase reporter (two-hybrid switch, stable CHO clone 1A2, steroid PonA)",42 fold
